The nanobody polyreactivity screen of Harvey et al. (2022)

Assay: yeast display, Sf9 membrane polyspecificity reagent, FACS + sequencing; frameworks hold sequencing errors
In short: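 Sorting gates, low and high (top ~1%), were placed on anti-HA fluorescence to track expression and on streptavidin fluorescence to track reagent binding. A clone's polyreactivity label is taken from the gate it came out of. The reagent was 10% biotinylated, detergent-solubilized Sf9 membrane, applied for 1 hour at 4 °C to galactose-induced yeast display cells.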

Sequence	polyreactivity (PSR sort gate)
QVPLVESGGGLLQAGGSLRISCAASGSIFTRNAMGWYRPAPGKERELVAAISRRGVSTYYADSVKGRFTISRDNAKNTVYLQMNSLKPEDTAVYYCTARSPMYRTTYDYWGQGTQVTVSS	high polyreactivity
QVPLVESGGGLVEAGGSLRLSCDASGGIFRGYAKGWYRQAPGKERDLVAAISRGGGSTYYADSVKGRFTISRDNAKNTVYLQLNSLKPEDTAVYYCAAIYTRVYDPVTEFYYWGQGTQVTVSS	high polyreactivity
QVPLVESGGGLVLAGGSLRLSCAASGSTVDDNAMGWYRQAPGKVRELVAGISTNGGSTSYADSVKGRITISRDNAKNTVYLQMNSRKPEHTAVYYSAKGLYVQFDYWGQGTQVTVSS	low polyreactivity
QVPLVESGGGLVQAGGSLRLSCAASGFTFFSHAMGWYSQAPGKDRELVAAITTNGGSTYYADSVKGRFTISRDNAKNTVYVQITSLKPEDTAVYYCAADYSLPWSWLYEYWGQGTQVTVSS	low polyreactivity
QVPLVESGGGLVQAGGSLRLSCAASGFTFTPYGMGWYRPAPGKERELVAAITWNGGRTYYADSVKGRFTISRDNAKNTVYLQMNSLKPEDTAVYYCAAVAWSWQKRGYWGQGTQVTVSS	high polyreactivity
QVPLVESGGGLVQAGGSLRLSCAASGRIFGYYARGWYRQAPGKDRELVASIRRGTRTNYADSVKGRFTISRDNAKNTVYLQMNSLKPEDTAVYYGAATRFQFTTTPWYDYWGQGTQVTVSS	high polyreactivity
QVPLVESGGGLVQAGGSLRLSCAASGRIFSSYAMGWYRQAPGKERELVAAISSRGGSTYYADSVKGRFTISRDNAKNTVYLQMNSLKPEDTAVYYCARVKYSGVVYKYDYWGQGTQVTVSS	high polyreactivity
QVPLVESGGGLVQAGGSLRLSCAASGRTFGRYAMGWYRQTHGKERELVASISWRGGSTYYADSVKGRFTISRDYAKNTVFLQMNSLKPEDTAVYYCAVRFLTYWHGSYWYDYWGQGTQVTVSS	high polyreactivity
QVPLVESGGGLVQAGGSLRLSCAASGRTFRPYALGWYRQAPGKERELVATISGGGSTYYADSVKGRFTISRDNAKNSLYLQLNSLKPEETAFYYCAKVLTYGGVSYISRMDYWGQATQVTVSS	low polyreactivity
QVPLVESGGGLVQAGGSLRLSCAASGSTFRRYGMGWYREAPGKERELFAAISKGGTRTYYADSVKGRFTISRDNAKNTVYLQMNSLKPEDTAVYYCNKAWYAYGPVYASWYGEYDYWGLGTQVTVSS	high polyreactivity
QVPLVESGGGLVQAGGSLRLSCAASGSTLAGYTMGWYRQAPGKERELVAAITWSGSSTYYADSVKGRFTISRDNAKNTVYLQMNSLKPEDTAVYYCAATYYVYSGGNYLRYDSWGQGTQVTVSS	high polyreactivity
QVPLVESGGGLVQAGGSLRLSCAASGSTQNRYAMGWYRQAPGKEREFVAAITWRGGSTYADSVKGRFTISRDNAKTTVYLQMYSLKPEDTAVYYCAAQGYKQRVHYDYWGQGNQVTVSS	high polyreactivity
QVPLVESGGGLVQAGGSLRLSCAASGYIFEKYAMGWYRHAPGKERELVAAITVTGASTYYADSVKGRFTSSRDNAKNTVYLQMNSLKPEDTAVYYGAAKTLSVGYVDPDYGRDYWGQGTQLTVSS	low polyreactivity
QVPLVESGGGVVQAGGSLRLSCAASGRTYRWNVMGWYRQAPGKERELVATISRRSGSTNYADSVKGRFTISRDNAKNTVYLQINSLKPEDTAVYYCNTDTYFPLYDYWGQGTQVTVSS	low polyreactivity
QVPRVESGGGLVQAGGSLRLSCAASGFTFRFYDMGWYRQARGNERELVAAISWSGTSTYYADSVKGRFTISRDNAKNTVYLQMNSLKPEETAVYYCAADIIGYEFDYWGQGTQVTVSS	high polyreactivity
QVQFVDSGAGLVQAGGSLRLSCAASGSTLTTNAMGWYRQAPGKERELVAAISWRGGPTYYADSVKGRFTISRDIAKNTVYLQMNSLKPEDTAVYYCAADYTRSAYDYWGQGTQVTVSS	high polyreactivity
QVQHEDSGGGLVQAGGSLRLSCAASGRIFSFYTMGWYRQAPGKERELVAAISGSGGSTYYADSVKGRFTISRDNAKNTVYLQMNSLKPEDTAVYYCARRRQRGGVNYWGQGTQVTVSS	high polyreactivity
QVQHEESGGGLDQPGGSLRLTCAASGRIFNGYKMGWYRKAPGKETEFVDTISRSGGSTYYADSVKGRFTISRDNAKNSVYLQMNSLKPEDTAVYYCAKSYPDKWEYDYWGQGTQVTVSS	low polyreactivity
QVQHEESGGGLVQAGGSLRLSCAASGIIFYYYALGWYRQAPGKERELVAAITGTGSRTYYADSVKGRFTISRDNAKNTVYLQMNSLKPEDTAVYYCNARSFATGSKVPARGYWGHGTQVTVSS	high polyreactivity
QVQHEESGRALVQAGGSLRLSCPPSGTTGIYAIGWYRQAPGKERELVAAITRRAGSTYYADSVKGRFTISRDNAKNRVYLLMTSLKPEDTAVYDCNATRGTATAYYYRWAGGYWGQGTQVTVSS	low polyreactivity
QVQHEESGRGLVQAGGSLRLSCAASGINCVYYAMGCYRQAPGKERELVAAISKNGGSTYYADSVKGRFTISRDNAYNTVYLQMNSLKPEDTAVYYCAAEEGYRWVRYNYWGQGTQVTVSS	high polyreactivity
QVQHLESGGGLVQAGGSLRLSCVASGLTQPYAMRWYRQAPGKERQLVAAITGGDGSTTYADSVKGRFTISRVNAKNTVYLQMNSLKPEDTAVYYCNADTARKYAESQFYHWGQGTQVSVSS	low polyreactivity

Sequence	polyreactivity (PSR sort gate)
QVQHLESGGGLVQAGRSLRLSCAASGSTFITNTMGWYIKATGKERELLAAISKSGGSTYYADSVKGRFTISRDNAKNTVYLQMNSLKPEDTAVYYCAADIYVRDRGVKYDYWGQGTQVTVSS	low polyreactivity
QVQHVDSGGGLVQARGTLRLSCSASGRNFGIYTMGWYRQPPVKERELVAAISWRGGSTYYADSVKGRFTISRDNAKNTVYFQLNSLKPEDTAVYYCGKTQPGWRPVRDQIRYGYWGQGTQVTVSA	high polyreactivity
QVQHVDSGGGLVQEGGSLRLICAASGSIFEQYTMGWYIQAPGKERELVAAISRRSGRTYYADSVKGRFTISRDNAKNTVYLQMNSLKPADTAVYYCAAQHAIYRNPGLDDYWGQGTQVTVSS	high polyreactivity
QVQHVESAAGLVQAGGSLRLTCAASGSIFRVYTMGWSRQAPGKERELVAAISRSGGRTYYADSVKGRFTISRDNAKNTVYLQMNSLKPEDTAVYYCAKRGRVTYPYYYWGQGTQVTVSS	high polyreactivity
QVQHVESAGGLVQAGGILRLSCAASGSTFVGNAMGWYRQAPGKEREWVATISNSGGRTDYADSVKGRFTISRDNAKNTVYLQMNSLKPEDTAVYYCAADHPAFGPGYSFDYWGQGTQVTVSS	low polyreactivity
QVQHVESAGGLVQAGGSLRLSCAASARTFRYYAMGWYRQSPGKERELVAAINYSGGRTYYADSVKGRFTISRDNAKITVYLQMNSLNPEDTAVYYCNAVLGSYLPKFDYWGQGTQVTVSS	high polyreactivity
QVQHVESARGLVHAGGSLRLSCAASGGTFQYYAMGLSRQAPGKERELVAAISSSGSTYYADSVKGRFTISRDNAKNTVYLQMNSLKPEDTAVYYCAAGHISIYYYTFYYWGQGTQVTVSS	high polyreactivity
QVQHVESGAGLVQAAGSLRLSCAASGSTFSSYALGWYRQAPGKERELVAAISHGDSTYYADSVKGRFTISRDNAKNTVYLQMNSLKPEDSAVYYCAALHEVWGVDYWGQGTHVTVSS	low polyreactivity
QVQHVESGARLVQAGGSLRLSCAASGHIFFDYTMGWSRQAPGKERELVAGITIGGSTNYADSVKGRFTISRDNAKNTVYLQMNSLKPEDTAVYYCNVVKYVYIYSYWEYYYWGQGTQVTVSS	low polyreactivity
QVQHVESGGALVKAGGSLRIRCAASGITFSKYAMGWYRQAPGKEMELVAAITRSGGSTYYADSVKGRFTISRDNGKNTVYLQMNSLKPEDTAVYSCIARGYFTGGDGGSGYWGQVTQVTVSS	high polyreactivity
QVQHVESGGALVQAGGSLRLSCAASGSTFTRNAMGWDRHAPGKERELVAAITSSGTSTYYADSVKGRFTISRDNAKNTVYLQMNSLKPEATAVYYCAAGIQSTYPKGGYRVTYYYWGQGTQVTVSS	high polyreactivity
QVQHVESGGCLDQAGGSLRLSCAASGIFRTNARGWYRTAPGKERELVAGISSGGGTNYADSVKGRFTISRDNAKNTVYLQMNSLKPEDTAVYSCAKERIYFYYWYVYSDLVYEYDYCGQGTQVTVSS	low polyreactivity
QVQHVESGGGFVQAGGSLRLSCAASGITFYDYTMGWYRPAPGKERELVDAITSSGVSTYYADSVKGRFTISRDNAKKTVYLQMNSLKPEDTAVYYCATDAWSVYSYLAFTYDYWGQGTQVTVSS	low polyreactivity
QVQHVESGGGIVQAGGSLRLSCAASGGIFGYYAMGWYRQAPGKEREFVATITRGGGSTYYADSVKGRFTISRDNAKNTVYLQMNSLKPEDSAVYYCNAKPSYYQRYIYWGQGTQVTVSS	high polyreactivity
QVQHVESGGGIVQAGGSLRLSCAASVRTIPYNAMGRYRQAPGKERELVAAISTGGSTNYADSVKGRFTISRDNAKNTVYLQMNSLKPEDTAVYYCNTRYRWARNWAYYYWGQGTQVTVSS	high polyreactivity
QVQHVESGGGIVQAGGSLRLTCAASGSTFGGNGMGWYRQAPGKEREFVATNTWRSVSTYYADSVKGRFTISRDNAKNTDFLQMISLKPEDTAVYYCAARLYRFASYRMDYWGQGTQVTVSS	high polyreactivity
QVQHVESGGGIVQAVGSLRLSCAASGSIFYYNAMGWYRQAPGKERELVAAISSGGSTYYADSVKGRFTISRDNAKNTVYLQMNSLKPEDTAVYYCAAKPAFRYLYSRYYPELGGYWGQGTQVTVSS	high polyreactivity
QVQHVESGGGLFQAGGSLRLSCAASGRIFSYYAMGWYRQAPGKERELVAAINWNGGRTYYADSVKGRFTISRDNAKNSVYLQMNSLKPEDTAVYYCNARYSGKYDYWRQGTQVTVSS	high polyreactivity
QVQHVESGGGLLQAGGSLRLICAAYGSTFGTYAMGWYRQAPGKERELVATISIGGITYYADSVKGRFTNSRDNAKYTVYLQMNSLKPEVTAVYYCAKDVTDATSRSDPSGDDYWGQGTQVTVSS	low polyreactivity
QVQHVESGGGLLQAGGSLRLSCAASGRIFYGNAMGWYRQATGKERELVAAILWRGGTTYYADSVKGRFTISRDNAMNTVYLLMISLKPEDTSDYNCTADEPYKYYYWGQGTQVTVSS	low polyreactivity
QVQHVESGGGLLQAGGSLRLSCAASGSIFYVYAMGWYRQAPGKERELVASISCGDSSTYYADSVKGRFTISRDNAKNTVYLQMNILIPEDTAVYYCAADDYRQYALYDYWGQGTHVTVSS	low polyreactivity
